Patent US20180117114A1 (INDIANA UNIVERSITY RESEARCH AND TECHNOLOGY COPORATION, published 2018)

Each binder was assayed against CRMP-2 from wild-type mouse brain lysate (mouse, UniProt O08553 1-572) (assay: SPOTS array of neurofibromin 15-mers overlaid with mouse brain lysate, probed with three CRMP-2 antibodies).

Row | binding result | Binder
1 | binds | YLQSFGFNGLWRFAG (15-mer on a SPOTS membrane) [SEQ ID NO: 3, neurofibromin C-terminus peptide YLQSFGFNGLWRFAG]
2 | binds | RVSHGQIKQIIRILS (15-mer on a SPOTS membrane) [SEQ ID NO: 1, neurofibromin C-terminus peptide RVSHGQIKQIIRILS]
3 | binds | KGYRHPSPAIVARTV (15-mer on a SPOTS membrane) [SEQ ID NO: 2, neurofibromin C-terminus peptide KGYRHPSPAIVARTV]
